Measurements taken from patent US20200270321A1.

How the values were obtained:
[1] = target: human CD19 (as in Table 11) (human) (UniProt P15391); test: binding to human CD19 after incubation at pH 7.4; method not stated
[2] = target: human CD19 (as in Table 11) (human) (UniProt P15391); test: binding to human CD19 after incubation at pH 6.0; method not stated
[3] = target: human CD19 (as in Table 11) (human) (UniProt P15391); test: BIAcore (SPR); format not stated

B1: wild-type humanized anti-human CD19 antibody 8B8 (antibody, V domains shown)
VH: QVQLVQSGAEVKKPGASVKVSCKASGYTFTDYIMHWVRQAPGQGLEWMGYINPYNDGSKYTEKFNGRVTMTSDTSISTAYMELSRLRSDDTAVYYCARGTYYYGSALFDYWGQGTTVTVSS
VL: DIVMTQTPLSLSVTPGQPASISCKSSQSLENSNGNTYLNWYLQKPGQSPQLLIYRVSKRFSGVPDRFSGSGSGTDFTLKISRVEAEDVGVYYCLQLTHVPYTFGQGTKLEIK
human CD19 binding after pH 7.4 incubation [%] [1]: 46%
human CD19 binding after pH 6.0 incubation [%] [2]: 90%
Kd [3]: 5 nM
